Measured values: patent publication EP1803810A1

Assays:
[1] = target: human integrin αvβ5 (human) (UniProt P06756); test: flow cytometry on HMVEC-d; competitor mAb MAB 1961
[2] = target: human integrin α5β1 (human) (UniProt P08648); test: flow cytometry on HMVEC-d; competitor mAb SAM-1
[3] = target: human integrin αvβ3 (human) (UniProt P06756); test: flow cytometry on HMVEC-d; competitor mAb LM609
α6β1.α6β4 (human) = α6β1.α6β4 (human) (UniProt P23229); test: flow cytometry on HMVEC-d; competitor α6 integrin mAb (GoH3 and/or 439-9B)
UniProt P23229, sequence (P23229 24-1130): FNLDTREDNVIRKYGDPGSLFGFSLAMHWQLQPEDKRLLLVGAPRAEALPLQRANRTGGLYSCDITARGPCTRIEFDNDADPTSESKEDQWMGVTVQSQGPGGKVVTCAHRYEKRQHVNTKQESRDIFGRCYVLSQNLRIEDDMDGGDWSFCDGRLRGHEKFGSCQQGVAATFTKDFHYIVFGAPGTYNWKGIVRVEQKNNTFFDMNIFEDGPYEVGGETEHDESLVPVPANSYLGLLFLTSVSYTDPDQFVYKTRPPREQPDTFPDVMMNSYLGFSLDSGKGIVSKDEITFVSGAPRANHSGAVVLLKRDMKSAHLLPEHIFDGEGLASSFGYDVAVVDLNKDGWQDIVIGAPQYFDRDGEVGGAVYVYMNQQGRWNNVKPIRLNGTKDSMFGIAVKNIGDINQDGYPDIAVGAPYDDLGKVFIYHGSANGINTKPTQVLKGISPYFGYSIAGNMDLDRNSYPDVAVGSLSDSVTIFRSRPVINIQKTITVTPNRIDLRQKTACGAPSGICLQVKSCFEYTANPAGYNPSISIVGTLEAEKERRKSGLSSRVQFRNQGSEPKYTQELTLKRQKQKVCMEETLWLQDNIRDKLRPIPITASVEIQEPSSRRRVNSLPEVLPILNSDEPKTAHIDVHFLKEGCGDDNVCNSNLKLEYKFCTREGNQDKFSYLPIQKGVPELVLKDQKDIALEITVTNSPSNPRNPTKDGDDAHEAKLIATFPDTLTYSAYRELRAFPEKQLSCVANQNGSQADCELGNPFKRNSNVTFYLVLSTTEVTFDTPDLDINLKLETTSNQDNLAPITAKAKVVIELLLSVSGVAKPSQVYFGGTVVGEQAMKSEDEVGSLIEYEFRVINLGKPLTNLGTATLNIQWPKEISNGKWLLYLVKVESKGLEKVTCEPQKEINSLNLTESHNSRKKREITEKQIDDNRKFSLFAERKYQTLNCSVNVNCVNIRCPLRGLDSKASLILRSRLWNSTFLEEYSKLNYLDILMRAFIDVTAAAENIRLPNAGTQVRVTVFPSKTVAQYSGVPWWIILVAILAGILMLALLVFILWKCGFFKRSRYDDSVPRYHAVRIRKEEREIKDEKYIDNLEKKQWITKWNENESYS

[4] = target: human integrin α2β1 (human) (UniProt P17301); test: flow cytometry on HMVEC-d; competitor mAb BHA2.1
UniProt P17301, sequence (P17301 30-1181, chain 1 of 2): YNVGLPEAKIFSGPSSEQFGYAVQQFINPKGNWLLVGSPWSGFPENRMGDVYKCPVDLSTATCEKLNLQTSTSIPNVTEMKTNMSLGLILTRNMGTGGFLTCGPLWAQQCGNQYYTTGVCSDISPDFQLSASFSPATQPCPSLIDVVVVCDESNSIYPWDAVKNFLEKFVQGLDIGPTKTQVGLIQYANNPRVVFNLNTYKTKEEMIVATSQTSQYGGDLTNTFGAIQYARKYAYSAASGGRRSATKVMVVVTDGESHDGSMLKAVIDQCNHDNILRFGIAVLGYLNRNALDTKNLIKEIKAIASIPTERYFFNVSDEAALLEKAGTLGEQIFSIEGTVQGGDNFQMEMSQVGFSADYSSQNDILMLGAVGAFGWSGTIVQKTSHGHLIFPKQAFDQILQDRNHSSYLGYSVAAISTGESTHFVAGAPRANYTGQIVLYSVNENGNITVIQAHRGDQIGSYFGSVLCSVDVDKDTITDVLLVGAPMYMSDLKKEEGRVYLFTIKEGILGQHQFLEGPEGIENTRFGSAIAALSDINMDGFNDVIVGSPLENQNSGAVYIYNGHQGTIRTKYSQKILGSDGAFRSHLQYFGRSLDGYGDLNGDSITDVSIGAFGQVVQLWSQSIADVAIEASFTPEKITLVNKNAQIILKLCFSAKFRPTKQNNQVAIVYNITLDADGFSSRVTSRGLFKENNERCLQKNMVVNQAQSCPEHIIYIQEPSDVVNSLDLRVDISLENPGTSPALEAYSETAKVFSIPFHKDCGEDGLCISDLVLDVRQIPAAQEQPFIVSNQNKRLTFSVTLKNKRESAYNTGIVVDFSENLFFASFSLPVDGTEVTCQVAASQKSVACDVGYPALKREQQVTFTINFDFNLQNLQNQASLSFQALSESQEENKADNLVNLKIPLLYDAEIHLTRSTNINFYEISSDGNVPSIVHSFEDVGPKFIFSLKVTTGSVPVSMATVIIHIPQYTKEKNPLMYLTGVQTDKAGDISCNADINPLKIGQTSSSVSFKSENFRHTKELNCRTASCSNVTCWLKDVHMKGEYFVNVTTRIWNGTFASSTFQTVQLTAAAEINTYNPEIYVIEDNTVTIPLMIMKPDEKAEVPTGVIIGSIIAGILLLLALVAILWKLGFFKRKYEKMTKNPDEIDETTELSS
UniProt P17301, sequence (P05556 21-798, chain 2 of 2, further chain): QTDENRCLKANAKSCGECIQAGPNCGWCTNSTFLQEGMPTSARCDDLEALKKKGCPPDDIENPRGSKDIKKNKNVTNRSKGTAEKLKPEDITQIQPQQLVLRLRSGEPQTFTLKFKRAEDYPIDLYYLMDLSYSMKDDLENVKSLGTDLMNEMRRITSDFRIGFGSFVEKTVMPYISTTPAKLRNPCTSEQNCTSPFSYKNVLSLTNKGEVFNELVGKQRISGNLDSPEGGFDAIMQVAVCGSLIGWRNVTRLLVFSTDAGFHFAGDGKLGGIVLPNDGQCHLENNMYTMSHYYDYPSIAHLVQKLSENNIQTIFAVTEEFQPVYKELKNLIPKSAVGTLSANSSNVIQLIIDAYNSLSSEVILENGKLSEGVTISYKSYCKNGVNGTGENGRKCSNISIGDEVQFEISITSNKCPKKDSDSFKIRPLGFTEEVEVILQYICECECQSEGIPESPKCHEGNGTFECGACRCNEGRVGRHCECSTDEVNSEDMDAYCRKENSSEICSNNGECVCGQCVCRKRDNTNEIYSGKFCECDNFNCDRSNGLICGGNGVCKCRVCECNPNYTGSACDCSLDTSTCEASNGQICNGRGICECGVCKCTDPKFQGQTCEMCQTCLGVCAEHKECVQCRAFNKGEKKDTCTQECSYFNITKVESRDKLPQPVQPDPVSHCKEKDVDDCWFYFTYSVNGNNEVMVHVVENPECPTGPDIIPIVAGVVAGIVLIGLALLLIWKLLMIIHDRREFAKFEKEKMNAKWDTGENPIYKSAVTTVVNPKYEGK

UniProt P08648, sequence (P08648 42-1049, chain 1 of 2): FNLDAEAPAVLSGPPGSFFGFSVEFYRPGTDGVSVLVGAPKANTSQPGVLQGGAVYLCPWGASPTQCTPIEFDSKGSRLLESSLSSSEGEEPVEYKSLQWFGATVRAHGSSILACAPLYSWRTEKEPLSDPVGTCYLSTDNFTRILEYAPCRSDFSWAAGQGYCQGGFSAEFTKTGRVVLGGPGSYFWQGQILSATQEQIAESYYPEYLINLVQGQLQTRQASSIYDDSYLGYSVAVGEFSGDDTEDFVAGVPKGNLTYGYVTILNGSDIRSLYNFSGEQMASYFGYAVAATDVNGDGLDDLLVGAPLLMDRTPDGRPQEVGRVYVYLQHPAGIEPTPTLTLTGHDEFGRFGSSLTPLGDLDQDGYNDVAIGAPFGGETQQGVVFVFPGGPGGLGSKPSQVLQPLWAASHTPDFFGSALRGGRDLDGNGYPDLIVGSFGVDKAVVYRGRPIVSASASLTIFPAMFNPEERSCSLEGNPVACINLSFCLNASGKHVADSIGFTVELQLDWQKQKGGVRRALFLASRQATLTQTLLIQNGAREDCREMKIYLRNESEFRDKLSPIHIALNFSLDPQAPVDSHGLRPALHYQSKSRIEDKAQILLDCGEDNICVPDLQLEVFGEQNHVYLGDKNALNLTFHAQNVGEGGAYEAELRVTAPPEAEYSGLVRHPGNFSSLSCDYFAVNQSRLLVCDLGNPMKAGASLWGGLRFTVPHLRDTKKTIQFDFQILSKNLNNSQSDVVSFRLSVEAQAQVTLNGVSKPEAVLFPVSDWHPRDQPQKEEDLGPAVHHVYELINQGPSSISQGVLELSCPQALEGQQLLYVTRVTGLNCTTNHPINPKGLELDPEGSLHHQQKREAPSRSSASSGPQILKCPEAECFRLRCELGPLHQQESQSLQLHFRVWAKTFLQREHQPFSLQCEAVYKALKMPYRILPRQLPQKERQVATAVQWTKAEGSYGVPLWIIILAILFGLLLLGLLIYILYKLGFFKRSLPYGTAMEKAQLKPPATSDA
UniProt P08648, sequence (P05556 21-798, chain 2 of 2, further chain): as the sequence (P05556 21-798, chain 2 of 2, further chain) above

| Substance | percent inhibition of binding by integrin mAb [1] | percent inhibition of binding by integrin mAb [2] | percent inhibition of binding by integrin mAb [3] | percent inhibition of binding by integrin mAb (α6β1.α6β4 (human)) | percent inhibition of binding by integrin mAb [4] |
| --- | --- | --- | --- | --- | --- |
| ADAM-15dis-Fc (Fc fusion) | 25% | 30% | 60% |  |  |
| ADAM-20dis-Fc (Fc fusion) |  |  | 58% |  |  |
| ADAM-21dis-Fc (Fc fusion) |  | 54% |  |  |  |

Continued, values first:

| percent inhibition of binding by integrin mAb [1] | percent inhibition of binding by integrin mAb [2] | percent inhibition of binding by integrin mAb [3] | percent inhibition of binding by integrin mAb (α6β1.α6β4 (human)) | percent inhibition of binding by integrin mAb [4] | Substance |
| --- | --- | --- | --- | --- | --- |
|  | 49% |  | 31% | 22% | ADAM-23dis-Fc (Fc fusion) |
|  | 36% | 42% | 32% |  | ADAM-22dis-Fc (Fc fusion) |
